Measurements taken from patent US20220054955A1.

Target: GST
Assay: photo-crosslinking of 7 mg/ml GST with 1 mM aziethyl glutathione (337 nm, 30 minutes), whole-protein LCMS

percent of GST molecules covalently crosslinked: 40%
Substance: aziethyl glutathione
